In patent US20250027068:
Changes are numbered by the printed parent chain.

B1: PRT-642 (protein)
chain: MQITSVWTKGVTPLTPEQFRYNNEDVIHAPYLAHQGWYDITKTFNRGDNLLCGAATAGNMLHWWFDQNKTEIEAYLSKHPEKQKIIFNNQELFDLKAAIDTKDSQTNSQLFNYFRDKAFPNLSARQGGVMPDLVLDMFINGYYLNVFKTQSTDVNRPYQDKDKRGGIFDAVFTRGDQTTLLTARHDLKNKGLNDISTIIKQELTEGRALALSHTYANVSISHVINLWGADFNAEGNLEAIYVTDSDADEKIGMKKYFVGINAHGHVAISAKKIEGENIGAQVLGLFTLSSGKDIWQKLSLEHHHHHH
B2: PRT-641 (protein)
chain: B1 chain with F44M, R46G, G47K, N49D, G127R, D248R, K250N
B3: PRT-568 (protein)
chain: MANQEIRYSEATPSHITSVWTKGVTPPTQFIQNEDVLHAPYIANQGWYDITKTFNGKDDLLCGAATAGNMLHWWFDQNKTQIENYLKKHPEKQKINFNGEQMFDVKEAIDTKDSQTDSALFSYFKDKAFPYLSTKHLGVFPDHVIDMFINGYRLSLTNHGPTPVKRQTKDPRGGIFDAVFTRGDQSKLLTARHDFKEKTLNEISQLIKQELTEGKALGLSHTYANVRINHVINLWGADFNAEGNLEAIYVTDSDSNASIGMKKYYVGVNAAGHVAISAKEIEGDNIGAQVLGLFTLSTGQDIWQQTNLEHHHHHH
B4: PRT-660 (protein)
chain: MQITSVWTKGVTPLTPEQFRYNNEDVIHAPYLAHQGWYDITKAFDGKDNLLCGAATAGNMLHWWFDQNKTEIEAYLSKHPEKQKIIFNNQELFDLRKAINTKDDQKESALFNYFRKKAFPNLSARQLGVMPDLVLDMFINGYYLNVFKTQSTDVNRPYQDKDKRGGIFDAVFTRGDQTTLLTARHDLKNKGLNDISTIIKQELTEGRALALSHTYANVSISHVINLWGADFNAEGNLEAIYVTDSDANASIGMKKYFVGINAHGHVAISAKKIEGENIGAQVLGLFTLSSGKDIWQKLSLEHHHHHH
B5: PRT-697 (protein)
chain: MTITSVWTKGVIPPTPEDFRYNNEDVLHAPYVPNQGWYDITKTFDGGDNLLCGAATAGNMLHWWFDQNKEEIERYLKKYPEKQKIIFNNQELFDVRAAINTKDSQTNSKLFNYFRDKAFPNLSARQLGVMPDLVLDMFINGYYLNLGKTQSTDVNRPYQDRDKRGGIFDHVFGRGDQTTLLTARHDLKNGGLNEISDLIKQELQSGKALALSHTYANVRINHVINLWGADFDAEGNLIAIYVTDSDANSSIGMKKYYVGVNANGKVAISAKKIEGDNIGAQVLGLFTLSTGQEIWQKLSLEHHHHHH
B6: PRT-663 (protein)
chain: MQITSVWTKGVTPPTPEQFRYNNEDVIHAPYLAHQGWYDITKTFDGKDNLLCGAATAGNMLHWWFDQNKTEIEAYLSKHPEKQKIIFNNQELFDLKEAINTKDSQTNSQLFNYFRDKAFPNLSARQLGVMPDLVLDMFINGYYLNVFKTQSTDVNRPYQDKDKRGGIFDAVFTRGDQTKLLTARHDLKNKGLNEISTLIKQELTEGKALALSHTYANVSISHVINLWGADFNAEGNLEAIYVTDSDANASIGMKKYFVGINASGHVAISAKKIEGENIGAQVLGLFTLSTGKDIWQKLSLEHHHHHH
B7: PRT-644 (protein)
chain: MQITSVWTKGVTPLTPEQFRYNNEDVIHAPYLAHQGWYDITKAFDGKDNLLCGAATAGNMLHWWFDQNKTEIEAYLSKHPEKQKIIFNNQELFDLKAAIDTKDSQTNSQLFNYFRDKAFPNLSARQLGVMPDLVLDMFINGYYLNVFKTQSTDVNRPYQDKDKRGGIFDAVFTRGDQTTLLTARHDLKNKGLNDISTIIKQELTEGRALALSHTYANVSISHVINLWGADFNAEGNLEAIYVTDSDANASIGMKKYYVGKNASGHVAISAKKIEDENIGAQVLGLFTLSSGKDIWQKLSLEHHHHHH
B8: PRT-681 (protein)
chain: B7 chain with H79Y, K96R, D100N, K260I, S263H, D275G, D293E
B9: PRT-605 (protein)
chain: B7 chain with D66E, H79Y, P80G, E81D, K82T, Y257F, K260I, S263H, D275G, D293E
B10: PRT-657 (protein)
chain: B4 chain with K97E, D104S, K106T, E107D, A109K, K116D
B11: PRT-651 (protein)
chain: B7 chain with P120G, F147G, D160T, K161R, Y257F, K260I, S263H, D275G
B12: PRT-621 (protein)
chain: B7 chain with G191T, D194E, T197Q, T204S, E205S, Y257F, K260I, S263H, D275G
B13: PRT-610 (protein)
chain: B7 chain with K260I, S263H, K271Y, D275G
B14: PRT-647 (protein)
chain: B7 chain with A183N, H185Y, K188Y, N189D, Y257F, K260I, S263H, D275G
B15: PRT-633 (protein)
chain: B7 chain with R20T, Y21N, L32K, H34N, R207K, Y257F, K260I, S263H, D275G
B16: PRT-611 (protein)
chain: B7 chain with H185Y, K188Y, Y257F, K260I, S263H, D275G
B17: PRT-619 (protein)
chain: B7 chain with S5T, K190G, N193E, T204K, E205N, E238S, Y257F, K260I, S263H, D275G
B18: PRT-650 (protein)
chain: B7 chain with E91K, F147T, D160T, K163P, Y257F, K260I, S263H, D275G

The proteins below were run against pooled human IgG (human IgG1, 2, 3 and 4).
For B1, the Enzyme Activity Endpoint Assay (purified): Fab′2 was 175 ng/µL, the Enzyme Activity Endpoint Assay (purified): Fc was 260 ng/µL and the Enzyme Activity Endpoint Assay (purified): IgG was 360 ng/µL. The Enzyme Activity Endpoint Assay (purified): scIgG was 760 ng/µL.
In the case of B2, the Enzyme Activity Endpoint Assay (purified): Fab′2 is reported as 975 ng/µL, the Enzyme Activity Endpoint Assay (purified): Fc is reported as 336 ng/µL and the Enzyme Activity Endpoint Assay (purified): IgG is reported as 0 ng/µL. The Enzyme Activity Endpoint Assay (purified): scIgG was 0 ng/µL.
Work on B3 yielded an Enzyme Activity Endpoint Assay (purified): Fab′2 of 880 ng/µL, an Enzyme Activity Endpoint Assay (purified): Fc of 402 ng/µL and an Enzyme Activity Endpoint Assay (purified): IgG of 0 ng/µL. The Enzyme Activity Endpoint Assay (purified): scIgG was 0 ng/µL.
With B4 the Enzyme Activity Endpoint Assay (purified): Fab′2 was 161 ng/µL, the Enzyme Activity Endpoint Assay (purified): Fc was 320 ng/µL and the Enzyme Activity Endpoint Assay (purified): IgG was 105 ng/µL. The Enzyme Activity Endpoint Assay (purified): scIgG was 668 ng/µL.
Work on B5 yielded an Enzyme Activity Endpoint Assay (purified): Fab′2 of 701 ng/µL, an Enzyme Activity Endpoint Assay (purified): Fc of 430 ng/µL and an Enzyme Activity Endpoint Assay (purified): IgG of 221 ng/µL. For the same protein, the Enzyme Activity Endpoint Assay (purified): scIgG was 161 ng/µL.
B6 showed an Enzyme Activity Endpoint Assay (purified): Fab′2 of 825 ng/µL, an Enzyme Activity Endpoint Assay (purified): Fc of 456 ng/µL and an Enzyme Activity Endpoint Assay (purified): IgG of 0 ng/µL. The Enzyme Activity Endpoint Assay (purified): scIgG was 0 ng/µL.
In the case of B7, the Enzyme Activity Endpoint Assay (purified): Fab′2 is reported as 882 ng/µL, the Enzyme Activity Endpoint Assay (purified): Fc is reported as 518 ng/µL and the Enzyme Activity Endpoint Assay (purified): IgG is reported as 0 ng/µL. It also gave an Enzyme Activity Endpoint Assay (purified): scIgG of 355 ng/µL.
For B8, the Enzyme Activity Endpoint Assay (purified): Fab′2 was 915 ng/µL, the Enzyme Activity Endpoint Assay (purified): Fc was 492 ng/µL and the Enzyme Activity Endpoint Assay (purified): IgG was 0 ng/µL. The Enzyme Activity Endpoint Assay (purified): scIgG was 0 ng/µL.
Protein B9 has an Enzyme Activity Endpoint Assay (purified): Fab′2 of 617 ng/µL, an Enzyme Activity Endpoint Assay (purified): Fc of 357 ng/µL and an Enzyme Activity Endpoint Assay (purified): IgG of 100 ng/µL. The Enzyme Activity Endpoint Assay (purified): scIgG was 157 ng/µL.
B10 gave an Enzyme Activity Endpoint Assay (purified): Fab′2 of 430 ng/µL, an Enzyme Activity Endpoint Assay (purified): Fc of 250 ng/µL and an Enzyme Activity Endpoint Assay (purified): IgG of 0 ng/µL. For the same protein, the Enzyme Activity Endpoint Assay (purified): scIgG was 0 ng/µL.
With B11 the Enzyme Activity Endpoint Assay (purified): Fab′2 was 542 ng/µL, the Enzyme Activity Endpoint Assay (purified): Fc was 367 ng/µL and the Enzyme Activity Endpoint Assay (purified): IgG was 168 ng/µL. The Enzyme Activity Endpoint Assay (purified): scIgG was 359 ng/µL.
In the case of B12, the Enzyme Activity Endpoint Assay (purified): Fab′2 is reported as 976 ng/µL, the Enzyme Activity Endpoint Assay (purified): Fc is reported as 514 ng/µL and the Enzyme Activity Endpoint Assay (purified): IgG is reported as 0 ng/µL. For the same protein, the Enzyme Activity Endpoint Assay (purified): scIgG was 0 ng/µL.
B13 gave an Enzyme Activity Endpoint Assay (purified): Fab′2 of 688 ng/µL, an Enzyme Activity Endpoint Assay (purified): Fc of 381 ng/µL and an Enzyme Activity Endpoint Assay (purified): IgG of 0 ng/µL. It also gave an Enzyme Activity Endpoint Assay (purified): scIgG of 0 ng/µL.
Work on B14 yielded an Enzyme Activity Endpoint Assay (purified): Fab′2 of 777 ng/µL, an Enzyme Activity Endpoint Assay (purified): Fc of 465 ng/µL and an Enzyme Activity Endpoint Assay (purified): IgG of 0 ng/µL. It also gave an Enzyme Activity Endpoint Assay (purified): scIgG of 330 ng/µL.
Protein B15 has an Enzyme Activity Endpoint Assay (purified): Fab′2 of 749 ng/µL, an Enzyme Activity Endpoint Assay (purified): Fc of 429 ng/µL and an Enzyme Activity Endpoint Assay (purified): IgG of 0 ng/µL. It also gave an Enzyme Activity Endpoint Assay (purified): scIgG of 0 ng/µL.
B16 was tested, and the Enzyme Activity Endpoint Assay (purified): Fab′2 was 924 ng/µL, the Enzyme Activity Endpoint Assay (purified): Fc was 490 ng/µL and the Enzyme Activity Endpoint Assay (purified): IgG was 0 ng/µL. The Enzyme Activity Endpoint Assay (purified): scIgG was 0 ng/µL.
In the case of B17, the Enzyme Activity Endpoint Assay (purified): Fab′2 is reported as 140 ng/µL, the Enzyme Activity Endpoint Assay (purified): Fc is reported as 283 ng/µL and the Enzyme Activity Endpoint Assay (purified): IgG is reported as 102 ng/µL. The Enzyme Activity Endpoint Assay (purified): scIgG was 591 ng/µL.
With B18 the Enzyme Activity Endpoint Assay (purified): Fab′2 was 522 ng/µL, the Enzyme Activity Endpoint Assay (purified): Fc was 452 ng/µL and the Enzyme Activity Endpoint Assay (purified): IgG was 130 ng/µL. It also gave an Enzyme Activity Endpoint Assay (purified): scIgG of 600 ng/µL.
